For orientation: IC50 means the point on the concentration scale where inhibition reaches its midpoint. What is called Kd is the constant that tells how readily two partners part at equilibrium. High values mean weaker binding, low ones tighter binding.

Substitutions are numbered along the chain they refer to.

The subject of test [1] is MM.1S xenograft. As to the kind of experiment: MM.1S subcutaneous xenograft model (Example 9). In kind it is in vivo, mouse. Particulars: 3 mg/kg intravenous, observed for 85 days post tumor implantation. The source says:
(§1) Subcutaneous xenograft mouse models of multiple myeloma and plasma cell leukemia were generated by implanting BCMA-expressing multiple myeloma or plasma cell leukemia cell lines (i.e., NCI-H929 and MM.1S) into female CB-17 SCID (C.B-17/IcrHsd-Prkdc-scid) mice using MATRIGEL™ (BD Biosciences, San Jose, Calif.). Once tumors reached approximately 200 mm^3 (NCI-H929 cells) or 180 mm^3 (MM.1S cells), mice were randomized based on tumor size and placed into dosing groups and treated with BCMA-targeting ADCs as described below.
Mice were treated with either a single intravenous dose of the ADCs IgG1-SG3400 or 15B2GL-SG3400 at 1 mg/kg or 3 mg/kg or dosed intravenously with J6M0-SG3400 at a dose of 1 mg/kg or 3 mg/kg. Control mice were left untreated.

In a further test the test system is MM.1S cells. Nature of the test: Cell killing in the presence of soluble BCMA (conditioned media from Ad293 cells expressing human BCMA). In kind it is cell-based. The protocol: Killing of multiple myeloma and plasma cell leukemia cell lines by antibody-drug conjugates comprising 15B2GL, or affinity-optimized clones thereof, conjugated to SG3249 was evaluated in vitro using the protocol recommended in the CELLTITER-GLO® kit (Promega, Madison, Wis.). Killing of multiple myeloma and plasma cell leukemia cell lines by the free warhead SG3199 also was evaluated using the protocol recommended in the CELLTITER-GLO® kit (Promega, Madison, Wis.). Briefly, 5×10^3 cells in 80 μL RPMI+10% FBS were added to the inner wells of white-walled 96-well plates (Corning® Costar®, Fisher Scientific, Waltham, Mass.). The following BCMA-expressing cell lines were tested: NCI-H929, EJM, MM.1R. JJN3, OPM-2, MM.1S, U266.B1, and L363. BMCA-negative cell lines Raji and Jurkat also were tested. The antibody-drug conjugates were diluted to a 5× stock (2.5 μg/mL) in RPMI+10% FBS. Treatments were then serially diluted 1:3 in RPMI+10% FBS. 20 μL of this series was added to the cells in duplicate, resulting in a 12-point dose curve of antibody-drug conjugate ranging from 0.5 μg/mL at the highest concentration to 3×10^−[…] at the lowest. Isotype antibody-drug conjugate (IgG1-SG3249 and IgG1-mc-MMAF) and media-only controls also were included. Plates were incubated at 37° C., 5% CO2 for 96 hours. At the end of the incubation period, 100 μL of the Substrate Solution (Promega, Madison Wis.) was added to each well. Luminescence was measured using an EnVision™ Multilabel plate reader (Perkin Elmer, Waltham, Mass.). Data were analyzed and graphed using GraphPad Prism™ software (GraphPad Software, Inc., La Jolla, Calif.), and the half-maximal inhibitory concentration (IC50) was determined.
The ability of the 15B2GL-SG3249 ADC to kill multiple myeloma cells in vitro in the presence of soluble BCMA (sBCMA) as compared to the I09-5G3249 ADC was evaluated in MM.1S cells using the protocol described above, except that tested cell lines also were treated with BCMA-containing conditioned media collected from Ad293 cells expressing human BCMA (FIGS. 3A and 3B). 15B2GL-SG3249 ADC cell killing in the presence of sBCMA also was compared to ADCs comprising the anti-BCMA antibody J6M0, which is described in U.S. Pat. No. 9,273,141.

The test system of a further test is NCI-H929 xenograft. As to the kind of experiment: NCI-H929 subcutaneous xenograft model (Example 5). In kind it is in vivo, mouse. The note with it: single intravenous dose 0.3 mg/kg, observed for 99 days post tumor implantation.
Source text: as §1, with “(i.e., NCI-H929, JJN-3, MM.1S,” for “(i.e., NCI-H929”, “and MM.1R)” for “and MM.1S)”, “(C.B-17/IcrHsd-Prkdc-scid) or athymic nude (Foxn1^nu)” for “(C.B-17/IcrHsd-Prkdc-scid)”, “approximately 180” for “approximately 200”, “(NCI-H929 cells), 190 mm^3 (JJN3 cells), 160” for “(NCI-H929 cells) or 180”, “(MM.1S cells), or 175 mm^3 (MM.1R” for “(MM.1S”
Mice were treated with either a single intravenous dose of the ADCs 15B2GL-SG3249, I09-5G3249, L15-SG3249 at 0.3 mg/kg or dosed intravenously with J6M0-mc-MMAF weekly at a dose of 0.3 mg/kg for 2 weeks. Control mice were left untreated.

The next test deals with JJN3 xenograft. As to the kind of experiment: JJN3 subcutaneous xenograft model. In kind it is in vivo, mouse. Particulars: single intravenous dose 1 mg/kg, observed for 104 days post tumor implantation.
Source text: as §1, with “(i.e., NCI-H929, JJN-3, MM.1S,” for “(i.e., NCI-H929”, “and MM.1R)” for “and MM.1S)”, “(C.B-17/IcrHsd-Prkdc-scid) or athymic nude (Foxn1^nu)” for “(C.B-17/IcrHsd-Prkdc-scid)”, “approximately 180” for “approximately 200”, “(NCI-H929 cells), 190 mm^3 (JJN3 cells), 160” for “(NCI-H929 cells) or 180”, “(MM.1S cells), or 175 mm^3 (MM.1R” for “(MM.1S”
Mice were treated with either a single intravenous dose of 15B2GL-SG3249, 109-SG3249, and L15-SG3249 ADCs at 1 mg/kg, or dosed intravenously with J6M0-mc-MMAF ADC weekly at a dose of 1 mg/kg for 3 weeks. Control mice were left untreated.

Test [2] deals with MM.1S xenograft. As to the kind of experiment: MM.1S subcutaneous xenograft model (Example 5). It is filed as in vivo, mouse. The note with it: single intravenous dose 1 mg/kg, observed for 99 days post tumor implantation.
Source text: as §1, with “(i.e., NCI-H929, JJN-3, MM.1S,” for “(i.e., NCI-H929”, “and MM.1R)” for “and MM.1S)”, “(C.B-17/IcrHsd-Prkdc-scid) or athymic nude (Foxn1^nu)” for “(C.B-17/IcrHsd-Prkdc-scid)”, “approximately 180” for “approximately 200”, “(NCI-H929 cells), 190 mm^3 (JJN3 cells), 160” for “(NCI-H929 cells) or 180”, “(MM.1S cells), or 175 mm^3 (MM.1R” for “(MM.1S”
Mice were treated with either a single intravenous dose of 15B2GL-SG3249, 109-SG3249, L15-SG3249 ADCs at 1 mg/kg or dosed intravenously with J6M0-mc-MMAF twice weekly at a dose of 1 mg/kg for 4 weeks. Control mice were left untreated.

The target in the next test is T1, monomeric human sBCMA (Homo sapiens, UniProt Q02223).
T1 construct: is comprised of the entire extracellular domain of the molecule; purchased GenScript
T1 sequence (Q02223 1-54 limits assumed): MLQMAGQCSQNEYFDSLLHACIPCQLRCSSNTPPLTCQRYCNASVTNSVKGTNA
As to the kind of experiment: Kinetics/affinity measurement by SPR (BioRad ProteOn XPR36), antibody captured by anti-Fc, sBCMA flowed over. It is filed as binding. The note with it: for Koff / Kon: sBCMA 100-6.25 nM; for Kd: unit inferred. The protocol: The binding of 15B2GL monoclonal antibody and optimized clones I09, L15, P10, N22, and M02 (described in Example 1) was assessed using monomeric human sBCMA (GenScript, Piscataway, N.J.) using a ProteOn™ XPR36 instrument (Bio-Rad, Hercules, Calif.). The binding of J6M0 also was assessed for comparison. Standard amine coupling was used to immobilize 25 μg/ml anti-Fc polyclonal antibody (Jackson ImmunoResearch, West Grove, Pa.) prepared in 10 mM sodium acetate buffer (pH 4.5) to the surface of a ProteOn™ GLC biosensor chip (Bio-Rad, Hercules, Calif.) pre-activated with 20 mM EDAC (1-ethyl-3-(3-dimethylaminopropyl)carbodiimide hydrochloride) and 5 mM Sulfo-NHS (N-hydroxysulfosuccinimide) at a density of ˜200-600 resonance units (RU). 15B2GL, I09, L15, P10, N22, M02, and J6M0 were subsequently injected at a concentration of 1 μg/ml for capture by the immobilized anti-Fc polyclonal antibody. The sensorgram was recorded by flowing two-fold serial dilutions of sBCMA prepared in PBS (pH 7.4) with 0.005% (v/v) Tween®-20, ranging from 100-6.25 nM, over the captured surface for 150 seconds at 75 μL/minute with dissociation time of 600 seconds. ProteOn™ data analysis software was used to analyze the data.

As for “J6M0-SG3400: BCMA-targeting ADC of J6M0 with SG3400”, in the test on MM.1S xenograft [1], the tumor regrowth result was “no evidence of tumor regrowth”.
Consider “J6M0-SG3249: ADC comprising the anti-BCMA antibody J6M0 and SG3249”, for which the IC50 with MM.1S cells (sBCMA 0 ng/mL) was determined as 0.004816 mg/L; in the test with MM.1S cells (sBCMA 75 ng/mL), 0.01283 mg/L; with MM.1S cells (sBCMA 270 ng/mL), 0.03226 mg/L; with MM.1S cells (sBCMA 720 ng/mL), 0.09292 mg/L. Also, the entries for the “Fold loss of potency” value with MM.1S cells (sBCMA 75 ng/mL vs 0), with MM.1S cells (sBCMA 270 ng/mL vs 0) and in the test on MM.1S cells (sBCMA 720 ng/mL vs 0) were 2.66, 6.70 and 19.29, respectively.

B1: I09-SG3249: ADC: optimized clone I09 conjugated to the PBD payload SG3249 (conjugate)
VH: EVQLVESGGGLVKPGGSLRLSCAASGFTFSSYSMNWVRQAPGKGLEWVSSISGSSNYIYYADSVKGRFTISRDNAKNSLYLQMNSLRAEDTAVYYCARGGNYFVEYFQQWGQGTLVTVSS
VL: EIVLTQSPGTLSLSPGERATLSCRASQYISSNYLAWYQQKPGQAPRLLIYGASNRATGIPDRFSGSGSGTDFTLTISRLEPEDFAVYYCQQYSSDPITFGQGTKLEIK
In the case of B1, the tumor regrowth result in the test with NCI-H929 xenograft, in the test on JJN3 xenograft and with MM.1S xenograft [2] was “no evidence of tumor regrowth” each time.

B2: M02: lead optimized clone of 15B2GL; VH SEQ ID NO: 15, VL SEQ ID NO: 16 (antibody, V domains shown)
VH: B1 VH with S54Q, F103Y, Q109Y
VL: B1 VL with Y33N
In the case of B2, in the test with monomeric human sBCMA, the Koff was 4.97E−03; the Kon is 4.99E+05; the affinity, expressed as Kd, was 9.95 nM.

B3: I09: lead optimized clone of 15B2GL; VH SEQ ID NO: 11, VL SEQ ID NO: 12 (antibody, V domains shown)
VH: B1 VH
VL: B1 VL
Turning to B3, in the test with monomeric human sBCMA, the Koff was found to be 5.99E−03, the Kon came out at 6.09E+05 and binding was characterised by a dissociation constant (Kd) of 9.82 nM.

B4: N22: lead optimized clone of 15B2GL; VH SEQ ID NO: 17, VL SEQ ID NO: 18 (antibody, V domains shown)
VH: B1 VH with Q109Y
VL: B1 VL with D95S
Take B4: in the test with monomeric human sBCMA, the Koff is 8.73E−03, the Kon was 5.36E+05 and the equilibrium dissociation constant (Kd) stood at 16.3 nM.

B5: L15: lead optimized clone of 15B2GL; VH SEQ ID NO: 13, VL SEQ ID NO: 14 (antibody, V domains shown)
VH: B1 VH with S54Q, Q109Y
VL: B1 VL with Y33N, S93A, S94D, D95S
Turning to B5, in the test with monomeric human sBCMA, the Koff stood at 3.86E−03; the Kon was 8.54E+05; the affinity, expressed as Kd, was 4.51 nM.

B6: P10: lead optimized clone of 15B2GL; VH SEQ ID NO: 19, VL SEQ ID NO: 20 (antibody, V domains shown)
VH: B1 VH with S30R, S54Q, F103Y, Q109Y
VL: B1 VL with S93T, S94D, D95S
In the case of B6, in the test with monomeric human sBCMA, the Koff is given as 3.73E−03, the Kon turned out to be 7.01E+05 and the dissociation constant (Kd) came out at 5.32 nM.

For the origin of these results see patent US11912782B2, “BCMA monoclonal antibody-drug conjugate” (MedImmune, LLC, priority 2017, dated 2024).
